Holding throughout (experiment): SPR (Biacore T100): antibody captured on Protein A, GST-FND1 as analyte
Test [1] has as its target T1, Human recombinant AXL-FND1 (GST-FND1), from pET-41b(+) (human, UniProt P30530 225-331).
T1 construct: Expressed in E. coli, purified on Glutathione Sepharose; analyte in all Biacore measurements; GST put first by the usual layout of pET-41; not shown: GST-tag of vector pET-41b(+) (Novagen)
T1 sequence (looked up): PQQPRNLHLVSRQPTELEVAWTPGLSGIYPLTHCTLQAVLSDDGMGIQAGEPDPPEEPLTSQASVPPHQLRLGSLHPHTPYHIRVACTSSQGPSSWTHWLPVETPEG
How it is done:
(§1) Kinetic analyses of antigen-antibody reactions of humanized AXL antibodies were carried out using Biacore T100 (BIACORE). rec-Protein A (Zymed) (hereinafter, Protein A) was immobilized onto a sensor chip, various antibodies were bound to it, then an antigen as the analyte was flushed to measure the antibody-antigen interaction. Human recombinant AXL-FND1 (prepared in 2-2; hereinafter referred to as GST-FND1) prepared at various concentrations was used as the antigen. From the sensorgrams obtained through the measurements, kinetic parameters, namely binding rate constant kₐ (1/Ms) and dissociation rate constant kd (1/s), were calculated, and Kd (M) was calculated based on these values. Biacore T100 Evaluation Software (BIACORE) was used to calculate each of the parameters.
The sensor chips were produced by immobilizing approximately 3000 RU of Protein A onto CM5 (BIACORE) by amine coupling. Using the produced sensor chip, kinetic analyses were carried out on the interaction between the Protein A-bound antibodies and GST-FND1. HBS-EP+ was used as the running buffer, and the flow rate was set to 30 μL/min. Each antibody was prepared at 1 μg/mL using the running buffer, and was subjected to binding with Protein A for two minutes. GST-FND1 as the analyte was prepared at 0.5 and 2.0 μg/mL using HBS-EP+. […]

Test [2] deals with T1, Human recombinant AXL-FND1 (GST-FND1), …. The procedure, abridged: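 Antibodies (1 μg/mL) were captured for 2 min on a Protein A CM5 chip. GST-FND1 (0.5 and 2.0 μg/mL) in HBS-EP+ was flowed at 30 μL/min with 2 min association and 2 min dissociation at 25° C. ka and kd were fitted from sensorgrams and Kd was calculated from them.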
The source holds these as a separate data set.

For test [3] the target is unchanged. The protocol:
as §1
The sensor chips were produced by immobilizing approximately 3000 RU of Protein A onto CM5 (BIACORE) by amine coupling. Using the produced sensor chip, kinetic analyses were carried out on the interaction between the Protein A-bound antibodies and GST-FND1. HBS-EP+ was used as the running buffer, and the flow rate was set to 30 μL/min. Each antibody was prepared at 1 μg/mL using the running buffer, and was subjected to binding with Protein A for two minutes. GST-FND1 as the analyte was prepared at 0.5 and 2.0 μg/mL using HBS-EP+. Measurements were carried out by first binding the various humanized AXL antibodies, chimeric AXL antibodies, or mouse AXL antibodies of interest to Protein A, then applying an analyte solution to them for a two-minute interaction, and then switching to HBS-EP+ (BIACORE) for a two-minute measurement of the dissociation phase. After completion of measurement of the dissociation phase, 30 μL of 10 mM glycine-HCl (pH 2.0) was used for washing to regenerate the sensor chip. Such binding, dissociation, and regeneration were defined as one cycle of analysis. All experiments were performed at 25° C.
Affinity measurements on the produced variants were carried out by the method of Example 2.
This is another data set of the same source.

Read-outs that look alike come from different tables or passages of the source.

What is called Kd is the constant that tells how readily two partners part at equilibrium.

B1: H0/L0 (antibody, human IgG1, kappa, V domains shown)
VH: QVTLKESGPVLVKPTETLTLTCTVSGFSLSSFGVDWVRQAPGKGLEWMGVIWGGGSTNYNSALKSRLTISKDTSKSQVVLTMTNMDPVDTATYYCAGEGSKYGAWFAYWGQGTLVTVSS
VL: DVVMTQSPLSLPVTLGQPASISCRSSQNIVHTNGNTYLEWYQQKPGKAPELLIYKVSNRFSGVPDRFSGSGSGTDFTLKISRVEAEDVGVYYCFQGSHIPFTFGQGTKLEIKR
notes: Humanized Ax225; IgG1 constant region without G446 and K447 (EU), natural human kappa
Take B1: the Kd in test [1] stood at 4.44 nM.

B2: H9/L0 (antibody, human IgG1, kappa)
heavy: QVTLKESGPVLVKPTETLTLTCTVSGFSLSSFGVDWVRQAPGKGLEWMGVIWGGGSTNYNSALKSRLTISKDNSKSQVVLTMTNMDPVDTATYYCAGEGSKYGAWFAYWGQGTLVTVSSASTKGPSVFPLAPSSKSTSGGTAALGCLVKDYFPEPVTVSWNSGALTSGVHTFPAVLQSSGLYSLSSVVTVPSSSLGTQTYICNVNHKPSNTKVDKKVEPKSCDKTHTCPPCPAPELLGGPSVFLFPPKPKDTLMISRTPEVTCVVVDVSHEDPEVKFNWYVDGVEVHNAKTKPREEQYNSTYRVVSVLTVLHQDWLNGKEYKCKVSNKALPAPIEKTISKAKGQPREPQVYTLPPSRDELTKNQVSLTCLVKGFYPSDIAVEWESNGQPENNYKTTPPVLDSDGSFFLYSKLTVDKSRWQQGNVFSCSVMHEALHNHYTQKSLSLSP
light: DVVMTQSPLSLPVTLGQPASISCRSSQNIVHTNGNTYLEWYQQKPGKAPELLIYKVSNRFSGVPDRFSGSGSGTDFTLKISRVEAEDVGVYYCFQGSHIPFTFGQGTKLEIKRTVAAPSVFIFPPSDEQLKSGTASVVCLLNNFYPREAKVQWKVDNALQSGNSQESVTEQDSKDSTYSLSSTLTLSKADYEKHKVYACEVTHQGLSSPVTKSFNRGEC
notes: also called humanized Ax225 antibody (H9/L0)
Turning to B2, the dissociation constant (Kd) in test [2], in test [1] and in test [3] was 3.58 nM each time.

Values taken from patent US20120121587A1 (Chugai, published 2012).
